In experiment [1] the target is Cm-labeled RNC bearing the engineered signal sequence 1A9L. Description: FRET or BRET.
The target of experiment [2] is SRP(∆FL), SRP(C235) labeled with DACM or acrylodan (E. coli) (UniProt P0AGD7). Description: time course of acrylodan fluorescence.
Experiment [3] deals with RNC bearing the nascent chain of FtsQ (UniProt P06136). Description: fluorescence polarisation.
Experiment [4] has as its target RNC bearing the nascent chain of firefly luciferase (firefly) [luciferase: P08659]. Description: fluorescence polarisation.

Sequence of RNC bearing the nascent chain of FtsQ (P06136 whole entry, looked up): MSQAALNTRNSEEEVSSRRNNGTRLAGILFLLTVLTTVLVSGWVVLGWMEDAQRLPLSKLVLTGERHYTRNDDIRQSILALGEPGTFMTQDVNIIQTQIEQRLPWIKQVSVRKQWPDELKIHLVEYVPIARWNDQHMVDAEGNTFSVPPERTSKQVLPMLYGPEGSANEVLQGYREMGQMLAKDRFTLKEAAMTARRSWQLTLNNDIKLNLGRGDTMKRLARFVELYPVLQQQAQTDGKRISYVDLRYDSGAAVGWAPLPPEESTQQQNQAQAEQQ
Sequence of RNC bearing the nascent chain of firefly luciferase (firefly) [luciferase: P08659] (P08659 whole entry, looked up): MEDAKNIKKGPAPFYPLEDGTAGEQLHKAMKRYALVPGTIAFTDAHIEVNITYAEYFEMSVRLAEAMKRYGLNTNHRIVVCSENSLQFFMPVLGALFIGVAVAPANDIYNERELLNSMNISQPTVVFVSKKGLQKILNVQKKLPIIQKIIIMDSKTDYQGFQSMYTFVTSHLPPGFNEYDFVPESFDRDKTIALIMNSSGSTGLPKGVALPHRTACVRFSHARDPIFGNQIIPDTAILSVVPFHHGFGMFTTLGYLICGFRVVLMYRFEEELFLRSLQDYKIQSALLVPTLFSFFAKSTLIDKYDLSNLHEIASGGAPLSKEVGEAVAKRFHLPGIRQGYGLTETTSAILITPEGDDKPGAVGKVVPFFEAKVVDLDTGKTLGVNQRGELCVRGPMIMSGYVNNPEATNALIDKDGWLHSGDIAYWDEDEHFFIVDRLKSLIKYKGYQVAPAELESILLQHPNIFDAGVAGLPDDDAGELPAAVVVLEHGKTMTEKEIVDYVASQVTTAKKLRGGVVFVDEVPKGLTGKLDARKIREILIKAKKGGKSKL

“SRP(∆FL) with BODIPY-FL labeled at residue 421 of Ffh (from UniProt P0AGD7 1-453) (complex)”: the fold weaker Kd (koff/kon) against wild-type SRP in experiment [1] came to 2 fold.
For “FtsY (from UniProt P10121 1-497) (receptor)”, the fold slower dissociation rate constant against wild-type SRP in experiment [2] came to 80 fold.
Turning to “SRP(∆FL) with fluorescein-labeled Ffh(C421) (from UniProt P0AGD7 1-453) (complex)”, in experiment [3], the fold change of Kd against wild-type SRP is below 3 fold.
On the same count and under the same terms, as for “SRP(LM→AA) with fluorescein-labeled Ffh(C421) (from UniProt P0AGD7 1-453) (complex)”, the figure is below 3 fold.
In experiment [1], “SRP(LM→AA) with BODIPY-FL labeled at residue 421 of Ffh (from UniProt P0AGD7 1-453) (complex)” yielded a fold weaker Kd (koff/kon) against wild-type SRP of 6 fold.
Take “wild-type SRP with fluorescein-labeled Ffh(C421) (from UniProt P0AGD7 1-453) (complex)”: the equilibrium dissociation constant (Kd) (as a rule, the constant that tells how readily two partners part at equilibrium) in experiment [3] amounted to 1.7 nM; in experiment [4] it was 128 nM.

(Values after publication PMC3541965.)
